According to patent publication US9663570B2, “Single domain antibodies directed against KRAS” (SINGH MOLECULAR MEDICINE, LLC, priority 2014, dated 2017):
“And” between values parts separate entries of the source, which are not always exact repeats. Equal values may be shown once.

B1: anti-TNF-alpha VHH69: second anti-TNF-alpha sdAb (SEQ ID NO. 46) (protein)
VHH: EVQLVESGGGSVLAGGSLRLSCVASGFTSRYNYMAWFRQAPGKEREGVATIGTASGSADYYGSVKDRFTISQDNAKNTVYLQMNSLKPEDTAMYYCAARTYGTISLTPSDYRYWGQGTLVTVSS
modifications: Camelid
B2: anti-TNF-alpha VHH62: third anti-TNF-alpha sdAb (SEQ ID NO. 47) (protein)
VHH: QVQLVESGGGPVQAGETLRLSCTASGFTFAEADMGWYRQAPGHECELVSTITTEGITSEASSYYADSVRGRFTISRDNAKNMVYLQMNSLKPEDTAVYYCAPDPYAYSTYSDYCSWAQGTQGTLVTVSS
modifications: Camelid
B3: B.VHH14: second anti-STAT3 sdAb, named VHH14 (SEQ ID NO. 4) (protein)
VHH: QVQLVESGGGSVQAGGSLRLSCVASTYTGCMGWFRQAPGKEREGVAALSSRGFAGHYTDSVKGRFSISRDYVKNAVYLQMNTVKPEDAAMYYCAAREGWECGETWLDRTAGGHTYWGQGTLVTVSS
modifications: Camelid

Legend:
TNF-alpha = target: T1, TNF-alpha (Homo sapiens, UniProt P01375); assay: Inhibition of TNF-alpha cytotoxicity against U937 by anti-TNF-alpha sdAbs; assay type: cell-based; details: constant dose of TNF-alpha at EC50
T1 construct: host or cells: added exogenously to U937 cells

MDA-MB-231 cells = assay: MTT proliferation assay, MDA-MB-231; assay type: cell-based, human; details: for Mean Absorbance (570 nM) ± S.E., Overall Mean: mean of 4 experiments; for Mean Growth Inhibition: individual experiments 1-4;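 as to all read-outs here: cultures held at 37 °C in humidified 5% CO2, treated groups compared against vehicle-treated controls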

T1 sequence (P01375 77-233 limits assumed): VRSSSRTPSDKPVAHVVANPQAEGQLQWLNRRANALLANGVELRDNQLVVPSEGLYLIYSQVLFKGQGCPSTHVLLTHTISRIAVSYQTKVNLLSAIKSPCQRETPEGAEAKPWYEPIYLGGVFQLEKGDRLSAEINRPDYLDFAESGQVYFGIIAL

Row | Molecule | inhibition of killing of U937 by TNF-alpha (TNF-alpha) | Mean Absorbance (570 nM) ± S.E. (MDA-MB-231 cells; Day 3, 10.0 μg/ml, individual experiments 1-4 (Table 6)) | Mean Absorbance (570 nM) ± S.E., Overall Mean (MDA-MB-231 cells; Day 3, 10.0 μg/ml) | Mean Absorbance (570 nM) ± S.E. (MDA-MB-231 cells; Day 3, 100 μg/ml, individual experiments 1-4 (Table 6)) | Mean Absorbance (570 nM) ± S.E., Overall Mean (MDA-MB-231 cells; Day 3, 100 μg/ml) | Mean Absorbance (570 nM) ± S.E. (MDA-MB-231 cells; Day 5, 10.0 μg/ml, individual experiments 1-4 (Table 7)) | Mean Absorbance (570 nM) ± S.E., Overall Mean (MDA-MB-231 cells; Day 5, 10.0 μg/ml) | Mean Absorbance (570 nM) ± S.E. (MDA-MB-231 cells; Day 5, 100 μg/ml, individual experiments 1-4 (Table 7)) | Mean Absorbance (570 nM) ± S.E., Overall Mean (MDA-MB-231 cells; Day 5, 100 μg/ml) | Mean Growth Inhibition (MDA-MB-231 cells; post 3 days, 10.0 μg/ml) | Mean Growth Inhibition (MDA-MB-231 cells; post 3 days, 100 μg/ml) | Mean Growth Inhibition (MDA-MB-231 cells; post 5 days, 10.0 μg/ml) | Mean Growth Inhibition (MDA-MB-231 cells; post 5 days, 100 μg/ml)
1 | B1 | inhibit killing of U937 by TNF-alpha | – | – | – | – | – | – | – | – | – | – | – | –
2 | B2 | inhibit killing of U937 by TNF-alpha | – | – | – | – | – | – | – | – | – | – | – | –
3 | B3 | – | 0.456 ± 0.048 and 0.499 ± 0.018 and 0.502 ± 0.048 and 0.559 ± 0.041 | 0.504 ± 0.021 | 0.255 ± 0.005 and 0.357 ± 0.019 and 0.308 ± 0.021 and 0.287 ± 0.021 | 0.302 ± 0.043 | 0.640 ± 0.011 and 0.338 ± 0.023 and 0.930 ± 0.044 and 0.842 ± 0.052 | 0.688 ± 0.131 | 0.549 ± 0.023 and 0.274 ± 0.032 and 0.578 ± 0.039 and 0.499 ± 0.036 | 0.475 ± 0.0690 | 23.1% and 20.0% and 38.5% and 23.3% | 57.0% and 42.8% and 62.3% and 60.6% | 5.5% and 25.9% and 5.4% and 22.9% | 18.9% and 39.9% and 41.2% and 54.3%
